Measurements reported in patent US6248554, “DNA sequence coding for a BMP receptor” (The Procter & Gamble Company, dated 2001).

T1: digit-removed BMP-2 (Homo sapiens (Human), UniProt P12643, 125I label by the chloramine-T method)
T1 sequence: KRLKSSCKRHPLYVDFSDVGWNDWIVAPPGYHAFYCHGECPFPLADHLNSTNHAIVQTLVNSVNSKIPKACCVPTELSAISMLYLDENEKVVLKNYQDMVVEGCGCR

T2: bone morphogenetic protein 2 (Homo sapiens (Human), UniProt P12643)
T2 sequence: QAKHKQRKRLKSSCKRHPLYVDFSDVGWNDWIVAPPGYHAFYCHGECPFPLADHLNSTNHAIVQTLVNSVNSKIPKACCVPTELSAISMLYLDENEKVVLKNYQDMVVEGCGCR

B1: bone morphogenetic protein 4 (ligand)
chain: SPKHHSQRARKKNKNCRRHSLYVDFSDVGWNDWIVAPPGYQAFYCHGDCPFPLADHLNSTNHAIVQTLVNSVNSSIPKACCVPTELSAISMLYLDEYDKVVLKNYQEMVVEGCGCR
modifications: 125I label by the chloramine-T method where used as tracer
B2: BMP receptor kinase protein-1 (receptor)
chain: QNLDSMLHGTGMKSDLDQKKPENGVTLAPEDTLPFLKCYCSGHCPDDAINNTCITNGHCFAIIEEDDQGETTLTSGCMKYEGSDFQCKDSPKAQLRRTIECCRTNLCNQYLQPTLPPVVIGPFFDGSIRWLVVLISMAVCIVAMIIFSSCFCYKHYCKSISSRGRYNRDLEQDEAFIPVGESLKDLIDQSQSSGSGSGLPLLVQRTIAKQIQMVRQVGKGRYGEVWMGKWRGEKVAVKVFFTTEEASWFRETEIYQTVLMRHENILGFIAADIKGTGSWTQLYLITDYHENGSLYDFLKCATLDTRALLKLAYSAACGLCHLHTEIYGTQGKPAIAHRDLKSKNILIKKNGSCCIADLGLAVKFNSDTNEVDIPLNTRVGTKRYMAPEVLDESLNKNHFQPYIMADIYSFGLIIWEMARRCITGGIVEEYQLPYYNMVPSDPSYEDMREVVCVKRLRPIVSNRWNSDECLRAVLKLMSECWAHNPASRLTALRIKKTLAKMVESQDVKI

Tests used:
[1] = biological target: B2; assay: whole cell binding of [125I]-BMP-4 (100 pM), nonspecific binding with 10 nM BMP-2, COS-7 cells transfected with pJT4-J159F
Experimental: The detached cells are pelleted in a tabletop centrifuge, then resuspended in fresh media at a concentration of 6.25 ×10^6 cells/ml. The cell suspension (5 ×10^6 cells, 0.8 ml) is transferred to the cuvette from a BioRad "GENE PULSER" electroporation system (BioRad, Hercules, Calif.). The purified DNA plasmid (10 μg) is added to the cuvette, and the cells subjected to electoporation at 4.0 kV/cm, with a capacitance of 25 μFd. Cells are then plated and allowed to recover. Fresh media is supplied after 24 hr. At 48 hr, cells are ready to be tested for binding of BMP-4.
(§1) For whole cell binding experiments, COS-7 cells are transfected with pJT4-J159F as described in example 7. After electroporation, cells are seeded in 12 well plates at 670,000 cells/ell. Media is changed after 24 hr, and binding experiments are carried out at 48 hr. At that time, cells are washed once with binding buffer (50 mM Hepes buffer, pH 7.4, 128 mM NaCl, 5 mM KCl, 5 mM MgSO_4, 1.2 mM CaCl_2, 2 mg/ml BSA), then equilibrated in the same buffer at 4° C. for 30 min with gentle shaking. […] The solubilized cells are then transferred to fresh tubes and counted in a Packard Model 5005 "COBRA" Gamma Counter (Packard Instrument Co., Downers Grove, Ill.).

digit-removed BMP-2 = biological target: T1, digit-removed BMP-2; assay: DSS crosslinking on transfected COS-7 cells, SDS-PAGE
Text: (§2) In this method, the bifunctional crosslinking reagent disuccinimidyl suberate (DSS) (Pierce Chemical, Rockford, Ill.) is used to covalently crosslink bound radiolabeled ligand to its receptor by reaction with free amino groups on lysine residues in the two proteins. Following the crosslinking, cellular proteins are separated by gel electrophoresis, and radioactive bands visualized. The labeled bands represent the receptor selectively "tagged" with the radiolabeled ligand. In this procedure, cells are transfected with pJT4-J159F as described in example 7, then seeded into 12 well plates at 670,000 cells/well. Media is changed after 24 hr. At 48 hr after electroporation, the cells are washed, equilibrated, and incubated with [^125I]-BMP-4 or [^125I]-DRBMP-2 and competing unlabeled ligands as described in this example for whole cell binding studies.
(§3) After completion of the 4 hour incubation with ligand, the cells are washed three times at 4° C. with 2 ml of binding buffer having the same composition as described above, except that no BSA is added. To each well is then added 1 ml of fresh BSA-free binding buffer, followed by freshly prepared DSS to a final concentration of 135 μM. After swirling gently to mix the DSS, the plates are incubated for exactly 15 minutes at 4° C. with gentle shaking. […]

[2] = biological target: T2, bone morphogenetic protein 2; assay: competition: 10 nM unlabelled BMP-2 greatly reduces the band of [125I]-BMP-4 or [125I]-DR-BMP-2 crosslinked to BRK-1
Text: as §2, §3

[3] = biological target: B1; assay: saturation binding of [125I]-BMP-4 (10-1000 pM) on COS-7 cells transfected with BRK-1, nonspecific binding with 10 nM unlabelled BMP-4, LIGAND software
Experimental: as §1, with “shaking. The buffer is then aspirated, and to each well is added 500 µl of binding buffer (4° C.), containing [^125I]-BMP-4 tracer (100 pM), as well as varying concentrations of unlabeled BMP-2, BMP-4, or other unlabeled ligand, depending on the assay. For determination of nonspecific binding, BMP-2 is added to the binding buffer at a final concentration of 10 nM.” for “shaking.”
In order to obtain a more quanitative characterization of binding to BRK-1, a saturation binding analysis is performed on COS-7 cells transfected with the cDNA for BRK-1, using the construct pJT4-J159F. Binding of [^125I]-BMP-4 is examined over a concentration range of 10–1000 pM, with nonspecific binding determined with 10 nM unlabeled BMP-4.

specific binding relative to mock-transfected COS-7 cells [1] [times] | binding result (digit-removed BMP-2) | binding result [2] | Kd [3] [nM] | Binder
3 | – | – | – | B1
– | binds | binds | 0.5 | B2
